Experimental data from the Human Domainome abundance scans (Beltran et al. 2025).
± gives the uncertainty stated by the source.

B1: Storkhead-box protein 2, residues 64 to 141; numbered along this chain, Q9P2F5 (parent)
chain: SPISQSQFIPLGEILCLAISAMNSARKPVTQEALMEHLTTCFPGVPTPSQEILRHTLNTLVRERKIYPTPDGYFIVTP

Variants of: B1
Test: abundance fitness (aPCA) (normalised: wild type 0, dead -1); higher = more abundant; growth selection in yeast, the domain comes from the species named
Conditions: Homo sapiens
For I14H, the abundance fitness was 0.033 ± 0.28.
For I14C, the abundance fitness was -0.109 ± 0.17.
V61I showed an abundance fitness of -0.014 ± 0.1.
Variant V61L has an abundance fitness of -0.05 ± 0.046.
T77Q showed an abundance fitness of -0.099 ± 0.078.
T77P gave an abundance fitness of -0.003 ± 0.088.
With T77V the abundance fitness was -0.065 ± 0.046.
In the case of T77H, the abundance fitness is reported as -0.084 ± 0.079.
For T77I, the abundance fitness was -0.261 ± 0.082.
With L17V the abundance fitness was -0.059 ± 0.043.
For L17S, the abundance fitness was 0.008 ± 0.042.
L17E gave an abundance fitness of 0.039 ± 0.059.
Work on L17G yielded an abundance fitness of -0.016 ± 0.036.
L17H gave an abundance fitness of 0.034 ± 0.11.
For L17C, the abundance fitness was -0.116 ± 0.074.
L17A showed an abundance fitness of 0.005 ± 0.04.
Work on P28G yielded an abundance fitness of -0.133 ± 0.037.
For P28Y, the abundance fitness was -0.032 ± 0.098.
With P28H the abundance fitness was -0.015 ± 0.11.
With P48Q the abundance fitness was -0.156 ± 0.071.
P48M showed an abundance fitness of -0.099 ± 0.13.
Variant A21F has an abundance fitness of -0.212 ± 0.091.
In the case of A21L, the abundance fitness is reported as -0.305 ± 0.051.
In the case of A21V, the abundance fitness is reported as -0.167 ± 0.048.
In the case of A21N, the abundance fitness is reported as 0.235 ± 0.16.
Variant A21M has an abundance fitness of -0.235 ± 0.079.
Variant A21Q has an abundance fitness of 0.002 ± 0.073.
For A21Y, the abundance fitness was 0.056 ± 0.097.
For G44H, the abundance fitness was -0.023 ± 0.077.
L60M gave an abundance fitness of -0.126 ± 0.055.
Work on L60R yielded an abundance fitness of -1.07 ± 0.079.
L60S showed an abundance fitness of -0.828 ± 0.052.
With L60H the abundance fitness was -0.719 ± 0.11.
In the case of L60P, the abundance fitness is reported as -1.07 ± 0.099.
Variant L60I has an abundance fitness of -0.384 ± 0.1.
F74T gave an abundance fitness of -0.031 ± 0.062.
With F74S the abundance fitness was 0.077 ± 0.057.
Work on F74M yielded an abundance fitness of 0.073 ± 0.078.
F74C gave an abundance fitness of -0.042 ± 0.074.
F74Y showed an abundance fitness of -0.065 ± 0.14.
F74Q gave an abundance fitness of 0.006 ± 0.078.
In the case of L34T, the abundance fitness is reported as -0.576 ± 0.084.
L34F gave an abundance fitness of -0.576 ± 0.12.
In the case of L34G, the abundance fitness is reported as -1.09 ± 0.094.
Work on L34V yielded an abundance fitness of -0.045 ± 0.039.
In the case of P68W, the abundance fitness is reported as -0.057 ± 0.047.
Work on P68A yielded an abundance fitness of 0.065 ± 0.049.
In the case of S20Y, the abundance fitness is reported as -0.181 ± 0.096.
In the case of S20Q, the abundance fitness is reported as 0.019 ± 0.087.
S20K showed an abundance fitness of 0.018 ± 0.075.
S20I showed an abundance fitness of -0.359 ± 0.099.
In the case of S20G, the abundance fitness is reported as -0.039 ± 0.037.
A33R showed an abundance fitness of -0.045 ± 0.037.
With A33N the abundance fitness was 0.1 ± 0.14.
A33V gave an abundance fitness of -0.127 ± 0.046.
Work on A33K yielded an abundance fitness of -0.028 ± 0.074.
For A33D, the abundance fitness was -0.154 ± 0.082.
With H55T the abundance fitness was 0.065 ± 0.051.
With H55L the abundance fitness was -0.088 ± 0.039.
In the case of H55D, the abundance fitness is reported as 0.07 ± 0.074.
H55S gave an abundance fitness of -0.005 ± 0.04.
In the case of H55G, the abundance fitness is reported as 0.06 ± 0.035.
For N23R, the abundance fitness was -0.156 ± 0.031.
In the case of N23V, the abundance fitness is reported as -0.143 ± 0.046.
In the case of N23D, the abundance fitness is reported as -0.061 ± 0.083.
In the case of N23L, the abundance fitness is reported as -0.354 ± 0.041.
Work on N23C yielded an abundance fitness of -0.226 ± 0.076.
Variant Q5R has an abundance fitness of -0.068 ± 0.037.
Q5T gave an abundance fitness of 0.049 ± 0.055.
In the case of Q5F, the abundance fitness is reported as -0.109 ± 0.074.
Variant Q5G has an abundance fitness of -0.12 ± 0.037.
Q5S showed an abundance fitness of -0.007 ± 0.035.
In the case of T39A, the abundance fitness is reported as -0.025 ± 0.053.
T39W showed an abundance fitness of -0.003 ± 0.064.
For T39G, the abundance fitness was 0.019 ± 0.051.
Variant T39L has an abundance fitness of -0.095 ± 0.04.
For S49C, the abundance fitness was -0.068 ± 0.053.
S49G gave an abundance fitness of -0.068 ± 0.032.
Work on S49N yielded an abundance fitness of -0.173 ± 0.11.
Variant S49Q has an abundance fitness of -0.265 ± 0.082.
In the case of S24E, the abundance fitness is reported as 0.009 ± 0.048.
With S24R the abundance fitness was -0.018 ± 0.035.
With S24M the abundance fitness was -0.125 ± 0.057.
For A18C, the abundance fitness was -0.001 ± 0.076.
Work on A18S yielded an abundance fitness of -0.197 ± 0.066.
For A18W, the abundance fitness was -0.496 ± 0.062.
Work on A18Q yielded an abundance fitness of -0.26 ± 0.13.
Work on A18V yielded an abundance fitness of -0.163 ± 0.062.
In the case of A18R, the abundance fitness is reported as -0.148 ± 0.049.
Variant F42M has an abundance fitness of 0.033 ± 0.2.
Variant F42N has an abundance fitness of 0.106 ± 0.21.
In the case of F42I, the abundance fitness is reported as 0.009 ± 0.15.
F42R showed an abundance fitness of 0.001 ± 0.1.
Variant F42T has an abundance fitness of 0.176 ± 0.17.
L53F showed an abundance fitness of -0.113 ± 0.12.
Variant L53D has an abundance fitness of -0.747 ± 0.4.
L53P showed an abundance fitness of -1.11 ± 0.19.
Variant L53W has an abundance fitness of -0.141 ± 0.024.
Variant L53R has an abundance fitness of -0.913 ± 0.092.
L53C gave an abundance fitness of -0.113 ± 0.14.
With L53S the abundance fitness was -0.586 ± 0.053.
Work on K65M yielded an abundance fitness of -0.171 ± 0.064.
Variant K65I has an abundance fitness of -0.21 ± 0.21.
K65F gave an abundance fitness of -0.084 ± 0.093.
Variant K65D has an abundance fitness of -0.443 ± 0.089.
K65G showed an abundance fitness of -0.541 ± 0.037.
Work on K65W yielded an abundance fitness of -0.209 ± 0.047.
Q7I gave an abundance fitness of -0.068 ± 0.099.
With Q7A the abundance fitness was 0.043 ± 0.053.
Variant Q7E has an abundance fitness of 0.023 ± 0.17.
In the case of R54Y, the abundance fitness is reported as -0.117 ± 0.33.
Work on R54A yielded an abundance fitness of 0.015 ± 0.1.
R54N gave an abundance fitness of 0.012 ± 0.25.
With R64Q the abundance fitness was -0.043 ± 0.099.
Work on R64H yielded an abundance fitness of 0.039 ± 0.12.
For R64E, the abundance fitness was 0.112 ± 0.075.
R64P showed an abundance fitness of -1.09 ± 0.14.
In the case of E32T, the abundance fitness is reported as 0.008 ± 0.091.
E32N gave an abundance fitness of -0.126 ± 0.11.
Variant I9Y has an abundance fitness of -0.082 ± 0.1.
Variant I9M has an abundance fitness of 0.062 ± 0.084.
In the case of I9T, the abundance fitness is reported as 0.007 ± 0.06.
Work on I9W yielded an abundance fitness of -0.011 ± 0.063.
With I75P the abundance fitness was -0.039 ± 0.051.
In the case of V76M, the abundance fitness is reported as 0.035 ± 0.075.
For V76Y, the abundance fitness was -0.087 ± 0.11.
For V76D, the abundance fitness was -0.102 ± 0.089.
In the case of V76F, the abundance fitness is reported as -0.012 ± 0.096.
Variant V76W has an abundance fitness of -0.028 ± 0.051.
For C41T, the abundance fitness was -0.105 ± 0.072.
Work on C41P yielded an abundance fitness of -0.534 ± 0.1.
C41R showed an abundance fitness of -0.05 ± 0.047.
For C41Q, the abundance fitness was -0.292 ± 0.16.
In the case of C41V, the abundance fitness is reported as -0.056 ± 0.035.
With C41S the abundance fitness was 0.021 ± 0.065.
Variant T40E has an abundance fitness of -0.048 ± 0.09.
With T40S the abundance fitness was -0.005 ± 0.047.
T40Q showed an abundance fitness of 0.021 ± 0.076.
T40F gave an abundance fitness of -0.105 ± 0.094.
For T56Q, the abundance fitness was -0.045 ± 0.066.
For T56P, the abundance fitness was -1.03 ± 0.12.
In the case of M35L, the abundance fitness is reported as -0.058 ± 0.062.
Work on M35W yielded an abundance fitness of -0.124 ± 0.067.
M35T gave an abundance fitness of -0.024 ± 0.08.
For M35Y, the abundance fitness was -0.164 ± 0.14.
M35H showed an abundance fitness of 0.018 ± 0.098.
In the case of M35E, the abundance fitness is reported as -0.113 ± 0.12.
In the case of E36G, the abundance fitness is reported as -0.028 ± 0.047.
Work on E36W yielded an abundance fitness of -0.187 ± 0.064.
In the case of E36P, the abundance fitness is reported as -0.424 ± 0.061.
E36V gave an abundance fitness of -0.102 ± 0.044.
E36D showed an abundance fitness of -0.012 ± 0.083.
E36M gave an abundance fitness of -0.059 ± 0.12.
E36R gave an abundance fitness of 0.003 ± 0.039.
D71N gave an abundance fitness of -0.012 ± 0.16.
In the case of D71T, the abundance fitness is reported as 0.004 ± 0.079.
Work on D71K yielded an abundance fitness of 0.073 ± 0.088.
In the case of D71H, the abundance fitness is reported as 0.031 ± 0.081.
D71G showed an abundance fitness of 0.018 ± 0.037.
D71P showed an abundance fitness of -0.223 ± 0.054.
With D71S the abundance fitness was -0.05 ± 0.046.
With D71R the abundance fitness was -0.088 ± 0.037.
For E13P, the abundance fitness was -0.059 ± 0.085.
Variant E13H has an abundance fitness of -0.061 ± 0.16.
In the case of E13V, the abundance fitness is reported as -0.241 ± 0.05.
For E13K, the abundance fitness was -0.039 ± 0.1.
In the case of E13Q, the abundance fitness is reported as 0.021 ± 0.067.
